Reference: patent US20240270821A1, “GIP/GLP1/GCG TRI-RECEPTOR AGONISTS AND USES THEREOF” (priority 2023, published 2024)
Starred links: 1 amine or outer side, 2 acyl side, 3 side chain; linkers in the order of their positions; H or OH if unused. Non-standard residues stand in square brackets, D forms with d. Groups on a side chain read outwards from the residue. No end group written: not given here. *: point of attachment. C18 diacid = O=C(O)CCCCCCCCCCCCCCCCC(=O)*; γGlu = O=C(O)[C@H](CCC(=O)[*:2])N[*:1]; αMe4Pal = C[C@](N)(Cc1ccncc1)C(=O)O; 4Pal = N[C@@H](Cc1ccncc1)C(=O)O; αMeL = CC(C)C[C@](C)(N)C(=O)O; Orn = NCCC[C@H](N)C(=O)O; Aib = CC(C)(N)C(=O)O

T1: human GIP receptor (human) (UniProt P48546)
T1 sequence (looked up): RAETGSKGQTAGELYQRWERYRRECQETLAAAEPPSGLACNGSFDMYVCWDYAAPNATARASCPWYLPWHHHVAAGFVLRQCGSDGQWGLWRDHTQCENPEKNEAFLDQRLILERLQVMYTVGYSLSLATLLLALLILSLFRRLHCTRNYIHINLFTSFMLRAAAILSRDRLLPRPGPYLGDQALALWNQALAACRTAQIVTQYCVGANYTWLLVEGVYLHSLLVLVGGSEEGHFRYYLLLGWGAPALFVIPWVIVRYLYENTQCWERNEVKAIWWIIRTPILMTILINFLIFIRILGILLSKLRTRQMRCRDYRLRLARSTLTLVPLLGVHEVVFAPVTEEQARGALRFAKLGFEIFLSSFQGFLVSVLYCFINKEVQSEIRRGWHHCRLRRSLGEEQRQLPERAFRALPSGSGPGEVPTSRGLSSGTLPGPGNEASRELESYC

B1: Example 1050 (peptide)
chain: YXQGTFTSDFSXXLDXKAQXAFIEXLLEGGPSSGAPPPGGSEE
modifications: non-natural residues; Lys acylated C18 diacid via γGlu2; C-term amide; synthetic construct; SITE 2: note = 2-Aminoisobutyric Acid; SITE 12: note = L-ornithine; SITE 13: note = alpha-methyl-leucine; SITE 16: note = L-ornithine; SITE 17: note = Lysine is chemically modified through conjugation of the epsilon-amino group of the Lysine side chain with (gamma-Glu)2-CO-(CH2)
B2: Example 1036 (peptide)
chain: YXQGTFTSDXSQXLDKKAQXAFIEYLLAGGPSSGAPPPSGSEE
modifications: synthetic construct; SITE 2: note = 2-Aminoisobutyric Acid; SITE 10: note = 3-(4-Pyridyl)-L-alanine; SITE 13: note = alpha-methyl-leucine; SITE 17: note = Lysine is chemically modified through conjugation of the epsilon-amino group of the Lysine side chain with (gamma-Glu)2-CO-(CH2)16-CO2H; SITE 20:
B3: Example 1035 (peptide)
chain: YXQGTFTSDXSQXLDXKAQXAFIEYLIAGGPSSGAPPPSGSEE
modifications: non-natural residues; acylated Lys; C-terminal amide; synthetic construct; SITE 2: note = 2-Aminoisobutyric Acid; SITE 10: note = 3-(4-Pyridyl)-L-alanine; SITE 13: note = alpha-methyl-leucine; SITE 16: note = L-ornithine; SITE 17: note = Lysine is chemically modified through conjugation of the epsilon-amino group of the Lysine side chain with (gamma-Gl)
B4: Example 1022 (peptide)
chain: YXQGTFTSDXSQXLDXKAQXAFIEYLIEAGPSSGAPPPSGSE
modifications: not fully specified; Aib, 4Pal, αMeL, Orn, Me4Pal, acylated K, C-terminal amide; synthetic construct; SITE 2: note = 2-Aminoisobutyric Acid; SITE 10: note = 3-(4-Pyridyl)-L-alanine; SITE 13: note = alpha-methyl-leucine; SITE 16: note = L-ornithine; SITE 17: note = Lysine is chemically modified through conjugation of the epsilon-amino group of the Lysine side chain with (2-[2-(2-
B5: Example 1025 (peptide)
chain: YXQGTFTSDXSQXLDKKAQXAFIEYLIEAGPSSGAPPPSGSE
modifications: synthetic construct; SITE 2: note = 2-Aminoisobutyric Acid; SITE 10: note = 3-(4-Pyridyl)-L-alanine; SITE 13: note = alpha-methyl-leucine; SITE 17: note = Lysine is chemically modified through conjugation of the epsilon-amino group of the Lysine side chain with (gamma-Glu)2-CO-(CH2)16-CO2H; SITE 20:
B6: Example 1023 (peptide)
chain: YXQGTFTSDXSQXLDXKAQXAFIEYLIEAGPSSGAPPPSGSE
modifications: not fully specified; acylated lysine (γGlu)2-C18 diacid; non-natural residues; C-terminal amide; synthetic construct; SITE 2: note = 2-Aminoisobutyric Acid; SITE 10: note = 3-(4-Pyridyl)-L-alanine; SITE 13: note = alpha-methyl-leucine; SITE 16: note = L-ornithine; SITE 17: note = Lysine is chemically modified through conjugation of the epsilon-amino group of the Lysine side chain with (gamma-Gl)
B7: Example 1024 (peptide)
chain: YXQGTFTSDXSQXLDKKAQXAFIEYLIEAGPSSGAPPPSGSE
modifications: Aib, 4Pal, αMeL, Me4Pal; K acylated AEEA-(γGlu)2-C18 diacid; amide; synthetic construct; SITE 2: note = 2-Aminoisobutyric Acid; SITE 10: note = 3-(4-Pyridyl)-L-alanine; SITE 13: note = alpha-methyl-leucine; SITE 17: note = Lysine is chemically modified through conjugation of the epsilon-amino group of the Lysine side chain with (2-[2-(2-Amino-ethoxy)-ethoxy]-acetyl)
B8: Example 1032 (peptide)
chain: Y[Aib]QGTFTSD[4Pal]SQ[αMeL]LD[Orn]KK([Glu-γGlu-C18 diacid])AQ[αMe4Pal]AFIEYLIAGGPSSGAPPPSGSEE-NH2
B9: Example 1047 (peptide)
chain: YXQGTFTSDFSXXLDKKAQXAFIEYLLEGGPSSGAPPPGGSEE
modifications: non-natural residues, C-terminal amide, acylated Lys with fatty diacid; synthetic construct; SITE 2: note = 2-Aminoisobutyric Acid; SITE 12: note = L-ornithine; SITE 13: note = alpha-methyl-leucine; SITE 17: note = Lysine is chemically modified through conjugation of the epsilon-amino group of the Lysine side chain with (gamma-Glu)2-CO-(CH2)16-CO2H; SITE 20: note = 2-Am
B10: Example 1048 (peptide)
chain: YXQGTFTSDFSXXLDXKAQXAFIEYLLEGGPSSGAPPPGGSEE
modifications: non-natural residues (Aib, Orn, αMeL); lipidated Lys; C-terminal amide; synthetic construct; SITE 2: note = 2-Aminoisobutyric Acid; SITE 12: note = L-ornithine; SITE 13: note = alpha-methyl-leucine; SITE 16: note = L-ornithine; SITE 17: note = Lysine is chemically modified through conjugation of the epsilon-amino group of the Lysine side chain with (gamma-Glu)2-CO-(CH2)
B11: Example 1051 (peptide)
chain: YXQGTFTSDFSXXLDKKAQXAFIEYLLAGGPSSGAPPPEGSEE
modifications: Aib, Orn, αMeL; acylated Lys; C-terminal amide; synthetic construct; SITE 2: note = 2-Aminoisobutyric Acid; SITE 12: note = L-ornithine; SITE 13: note = alpha-methyl-leucine; SITE 17: note = Lysine is chemically modified through conjugation of the epsilon-amino group of the Lysine side chain with (gamma-Glu)2-CO-(CH2)16-CO2H; SITE 20: note = 2-Am
B12: Example 1038 (peptide)
chain: YXQGTFTSDFSQXLDXKAQXAFIEYLLEAGPSSGAPPPSGSEEE
modifications: synthetic construct; SITE 2: note = 2-Aminoisobutyric Acid; SITE 13: note = alpha-methyl-leucine; SITE 16: note = L-ornithine; SITE 17: note = Lysine is chemically modified through conjugation of the epsilon-amino group of the Lysine side chain with (2-[2-(2-Amino-ethoxy)-ethoxy]-acetyl)-(gamma-Glu)
B13: Example 1040 (peptide)
chain: YXQGTFTSDFSQXLDXKAQXAFIEXLLEAGPSSGAPPPSGSEEE
modifications: Aib, αMeL, Orn, Me4Pal; acylated K; C-terminal amide; synthetic construct; SITE 2: note = 2-Aminoisobutyric Acid; SITE 13: note = alpha-methyl-leucine; SITE 16: note = L-ornithine; SITE 17: note = Lysine is chemically modified through conjugation of the epsilon-amino group of the Lysine side chain with (gamma-Glu)2-CO-(CH2)16-CO2H; SITE 20: note = 2-Am
B14: Example 1039 (peptide)
chain: YXQGTFTSDFSQXLDXKAQXAFIEYLLEAGPSSGAPPPSGSEEE
modifications: not fully specified; synthetic construct; SITE 2: note = 2-Aminoisobutyric Acid; SITE 13: note = alpha-methyl-leucine; SITE 16: note = L-ornithine; SITE 17: note = Lysine is chemically modified through conjugation of the epsilon-amino group of the Lysine side chain with (gamma-Glu)2-CO-(CH2)16-CO2H; SITE 20: note = 2-Am
B15: Example 1019 (peptide)
chain: YXQGTFTSDXSQXLDXKAQXAFIEYLIEAGPSSGEPPPSGS
modifications: not fully specified; non-natural residues, (γGlu)2-C18 diacid lysine acylation, C-terminal amide; synthetic construct; SITE 2: note = 2-Aminoisobutyric Acid; SITE 10: note = 3-(4-Pyridyl)-L-alanine; SITE 13: note = alpha-methyl-leucine; SITE 16: note = L-ornithine; SITE 17: note = Lysine is chemically modified through conjugation of the epsilon-amino group of the Lysine side chain with (gamma-Gl)
B16: Example 6 (peptide)
chain: YXQGTFTSDFSKXLDKKAQXAFIEYLLAGGPSSGEPPPSGG
modifications: Aib, αMeL; Lys acylated; C-terminal amide; synthetic construct; SITE 2: note = 2-Aminoisobutyric Acid; SITE 13: note = alpha-methyl-leucine; SITE 17: note = Lysine is chemically modified through conjugation of the epsilon-amino group of the Lysine side chain with (2-[2-(2-Amino-ethoxy)-ethoxy]-acetyl)-(gamma-Glu)-CO-(CH2) 18-CO2H; SITE 20: n

What was measured:
Assay in all cases: cell-based or functional assay
[1] = target: human glucagon receptor (human) (UniProt P47871)
[2] = target: T1, human GIP receptor (human)
hGLP-1R = hGLP-1R (Homo sapiens, UniProt P43220)
hGLP-1R, sequence (P43220 24-463): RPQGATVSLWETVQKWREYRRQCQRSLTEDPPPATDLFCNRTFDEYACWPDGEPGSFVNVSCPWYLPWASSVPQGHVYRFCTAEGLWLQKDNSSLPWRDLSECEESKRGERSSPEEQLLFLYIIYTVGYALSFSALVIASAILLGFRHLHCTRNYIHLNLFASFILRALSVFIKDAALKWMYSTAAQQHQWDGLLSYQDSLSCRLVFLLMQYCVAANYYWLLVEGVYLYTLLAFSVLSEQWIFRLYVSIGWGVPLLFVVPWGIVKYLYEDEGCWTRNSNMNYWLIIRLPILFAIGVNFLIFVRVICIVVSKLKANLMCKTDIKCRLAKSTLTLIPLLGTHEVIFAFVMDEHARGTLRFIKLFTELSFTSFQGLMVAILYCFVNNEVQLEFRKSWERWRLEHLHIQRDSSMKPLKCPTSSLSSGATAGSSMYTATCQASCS

human glucagon receptor (human), sequence (P47871 26-477): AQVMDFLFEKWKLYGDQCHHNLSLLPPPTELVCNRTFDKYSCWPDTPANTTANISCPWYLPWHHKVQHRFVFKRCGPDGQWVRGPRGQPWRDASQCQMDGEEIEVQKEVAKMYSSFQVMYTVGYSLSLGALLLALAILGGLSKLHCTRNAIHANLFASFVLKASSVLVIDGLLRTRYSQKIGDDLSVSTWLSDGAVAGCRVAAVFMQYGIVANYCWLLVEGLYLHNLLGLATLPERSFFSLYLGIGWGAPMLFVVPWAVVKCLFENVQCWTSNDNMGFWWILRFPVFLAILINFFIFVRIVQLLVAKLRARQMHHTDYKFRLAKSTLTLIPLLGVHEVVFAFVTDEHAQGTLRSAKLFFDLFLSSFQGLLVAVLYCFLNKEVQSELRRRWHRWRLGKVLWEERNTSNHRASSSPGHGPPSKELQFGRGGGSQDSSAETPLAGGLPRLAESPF

Binder	Relative cAMP EC50 [1] [nM]	cAMP Rel EC50 (1% HSA) [1] [nM]	Relative cAMP EC50 [2] [nM]	cAMP Rel EC50 (1% HSA) [2] [nM]	Relative cAMP EC50 (hGLP-1R) [nM]	cAMP Rel EC50 (1% HSA) (hGLP-1R) [nM]	cAMP Rel EC50, nM (1% HSA) [1] [nM]	cAMP Rel EC50, nM (1% HSA) [2] [nM]	cAMP Rel EC50, nM (1% HSA) (hGLP-1R) [nM]	cAMP Rel EC50 (in the presence of 1% HSA) [1] [nM]	cAMP Rel EC50 (in the presence of 1% HSA) [2] [nM]	cAMP Rel EC50 (in the presence of 1% HSA) (hGLP-1R) [nM]
B1	6.8	2040	0.152	68.5	7.65	1240						
B2	2.05		0.114		6.87		353	13	1080			
B3							1380	16	167			
B4							586	27.9	203			
B5	3.22		0.18		2.45		625	31.5	352			
B6							856	26	230			
B7							760	32.5	330			
B8							900	21.9	148			
B9	8.18		0.28		16.2		1510	60.8	1960			
B10	6.9		0.356		6.23		1930	108	1900			
B11	10.3	1800	0.172	32.6	8.3							
B12	5.93		0.134		1.45		1300	29.8	349			
B13							2020	20.8	322			
B14	7.46		0.118		1.65		2020	26.8	413			
B15	4.36		0.169		1.33		579	21.3	161			
B16	6.89		0.232		1.95					1380	46.6	446
